± gives the uncertainty stated by the source.
Experiment: protein stability index of a GFP-peptide fusion (yeast GPS) (PSI 1-4); higher = more stable; sorted into four equal gates, so the index is relative within each strain
Summary of the method: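 Tiled yeast protein peptides of 17 residues were each joined downstream of GFP, on plasmids that also express Cherry. The pooled library was maintained in yeast, and mid-log cultures in leucine-free medium were sorted into four equal gates on the GFP/Cherry ratio. Plasmids from every gate were amplified by PCR and sequenced on Illumina, with barcodes linking reads to strains. The protein stability index of a peptide is its gate-number-weighted read frequency summed over the gates.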

| Sequence | protein stability index (doa10∆) | protein stability index (pdr5∆) | protein stability index (san1∆) | protein stability index (ubr1∆) |
| --- | --- | --- | --- | --- |
| QRILEVLGTPDQKIWPY [SSN3] | 2.2 ± 0.076 | 1.45 ± 0.057 | 1.76 ± 0.093 | 1.6 ± 0.068 |
| LVISLAATNETFENINS [IRR1] | 2.07 ± 0.11 | 2.4 ± 0.13 | 1.9 ± 0.095 | – |
| ITKVTENLFSKEEVCQG [YMR129W/POM152] | 2.95 ± 0.085 | 2.77 ± 0.092 | 2.97 ± 0.074 | 3.06 ± 0.082 |
| ADLKKGKDLSPAINYTK [QCR2] | 3.26 ± 0.13 | 3.36 ± 0.08 | 3.32 ± 0.086 | 3.23 ± 0.065 |
| SFFIASQLQEQFNKILP [FAS1] | 2.69 ± 0.15 | 3.13 ± 0.15 | 2.54 ± 0.081 | 2.77 ± 0.07 |
| SHGNPVVDFLKRNGSTL [FAS1] | 3.02 ± 0.052 | 3.17 ± 0.049 | 3.1 ± 0.043 | 3.11 ± 0.038 |
| SNLKISLVKYPELLDSL [SWI1] | 2.76 ± 0.074 | 2.69 ± 0.058 | 2.71 ± 0.074 | 2.96 ± 0.056 |
| NNNNSNNHNMRNNSNNK [SWI1] | 3.054 ± 0.029 | 2.95 ± 0.031 | 2.762 ± 0.026 | 2.764 ± 0.021 |
| AKTFGASVRIFLYPSNI [RPL33A] | 2.38 ± 0.057 | 2.65 ± 0.056 | 2.5 ± 0.066 | 2.59 ± 0.054 |
| HAQLLLSDRITGNFIIP [PRP8] | 2.09 ± 0.061 | 2.52 ± 0.071 | 2.37 ± 0.071 | 2.71 ± 0.043 |
| SLYIFFTTLLESKQDGL [YML103C/NUP188] | 2.29 ± 0.12 | 1.42 ± 0.085 | 1.25 ± 0.1 | 1.19 ± 0.036 |
| KKFIEISDVKIQVAAFI [PRP8] | 2.84 ± 0.058 | 2.54 ± 0.052 | 2.65 ± 0.048 | 2.55 ± 0.042 |
| WTMAFRTMDDIKDSVRE [ECM29] | – | 2.5 ± 0.16 | 2.67 ± 0.11 | 2.66 ± 0.12 |
| ASTGSGKTLAFVIPILI [PRP28] | 1.47 ± 0.069 | 1.29 ± 0.079 | 1.48 ± 0.17 | 3.09 ± 0.1 |
| QQLRRALPDVVVKGLPD [RPO31] | 2.19 ± 0.069 | 2.31 ± 0.057 | 1.93 ± 0.078 | 2.36 ± 0.083 |
| KTFEIKEIKTNEYVIKT [YMR129W/POM152] | 2.58 ± 0.1 | 2.25 ± 0.089 | 1.92 ± 0.091 | 2.02 ± 0.047 |
| DLSWSKQTDTGITHFRA [PRP8] | 2.85 ± 0.085 | 3.11 ± 0.057 | 3 ± 0.055 | 3.02 ± 0.049 |
| LPVNIRRIIQNAQQTFH [RPO21] | 2 ± 0.053 | 2.01 ± 0.05 | 2.64 ± 0.075 | 1.56 ± 0.051 |
| VSKQLGNGLVDENKVEA [YAR002W/NUP60] | 3.17 ± 0.082 | 3.02 ± 0.068 | 3.38 ± 0.048 | 3.21 ± 0.049 |
| DTSNWELSDSWRAHDSS [YGL100W/SEH1] | 3.29 ± 0.068 | 3.37 ± 0.058 | 3.4 ± 0.036 | 3.31 ± 0.037 |
| SYDFLPLSNIKALLFFN [RPN12] | 2.14 ± 0.047 | 1.96 ± 0.048 | 1.42 ± 0.08 | 1.82 ± 0.044 |
| MILNYNPSQGVSNSGAQ [UBP6] | 3.25 ± 0.096 | 3.37 ± 0.086 | 3.14 ± 0.064 | 3.25 ± 0.055 |
| SKVGSADTGRDDTKETV [RPN11] | 3.14 ± 0.13 | 3.36 ± 0.089 | 3.59 ± 0.068 | 3.04 ± 0.12 |
| NEQLTLLSKKHGQLKLS [RPN5] | 1.6 ± 0.066 | 2.34 ± 0.062 | 1.83 ± 0.081 | 2.4 ± 0.079 |
| LGKWYSKEDYETLKRDR [ARP7] | 3.31 ± 0.15 | 2.75 ± 0.2 | 3.33 ± 0.16 | 2.95 ± 0.15 |
| KEFKGIKVTVQLKIQNR [RPL12A] | 1.3 ± 0.08 | 1.62 ± 0.071 | – | 2.4 ± 0.09 |
| GSRTTTNHVLEVFSVLG [RPO31] | 2.93 ± 0.13 | 2.76 ± 0.14 | – | – |

| Sequence | protein stability index (doa10∆) | protein stability index (pdr5∆) | protein stability index (san1∆) | protein stability index (ubr1∆) |
| --- | --- | --- | --- | --- |
| NVDYYNVAHRIKEDIKK [SNF2] | 3.32 ± 0.065 | 3.17 ± 0.066 | 3.11 ± 0.04 | 3.02 ± 0.046 |
| RYADAGNIDTKNNILGS [RRP43] | 3.31 ± 0.062 | 3.06 ± 0.05 | 3.12 ± 0.039 | 3.04 ± 0.049 |
| DEFIKTHEDLPKEVDGL [IRR1] | 3.2 ± 0.081 | 3.29 ± 0.094 | 3.04 ± 0.078 | 3.21 ± 0.067 |
| GATKIVREHYLRSDIPC [DIS3] | 2.67 ± 0.069 | 2.63 ± 0.067 | 2.1 ± 0.093 | 2.43 ± 0.054 |
| HTLALEFVNGGKVVKNV [RRP46] | 2.2 ± 0.18 | 2.22 ± 0.074 | 2.19 ± 0.29 | 2.14 ± 0.13 |
| KFPDMGSLWVEFCDEPS [RPB5] | 2.75 ± 0.044 | 2.89 ± 0.06 | 2.9 ± 0.066 | 2.96 ± 0.045 |
| LQMYSKIRRHPNIMLIF [FAS1] | 1.72 ± 0.039 | 2.01 ± 0.042 | 1.97 ± 0.08 | 1.91 ± 0.034 |
| NKGELETQPGCNEEQTL [RPO31] | 3.21 ± 0.16 | 3.38 ± 0.12 | 3.21 ± 0.2 | 3.2 ± 0.082 |
| FESLYNSNDSVFVGSGK [BRR2] | 3.24 ± 0.098 | 3.18 ± 0.11 | 2.97 ± 0.13 | 3.15 ± 0.11 |
| APLKALVQEQVREFQRR [BRR2] | 1.26 ± 0.1 | 1.24 ± 0.092 | 1.3 ± 0.13 | 1.26 ± 0.13 |
| CFSINDDPVPTPPAIEH [SSN2] | 2.42 ± 0.25 | 2.1 ± 0.26 | – | – |
| LKKANIIYHTTFSWLNA [YLR018C/POM34] | 2.46 ± 0.043 | 2.45 ± 0.044 | 2.41 ± 0.043 | 2.54 ± 0.036 |
| AARHRARFRSIHILKVA [RPL20A] | 1.22 ± 0.077 | 1.18 ± 0.042 | 1.22 ± 0.11 | 1.1 ± 0.059 |
| CISLGSTKLSRPFDSFG [ITC1] | 3.06 ± 0.067 | 2.93 ± 0.061 | 3.03 ± 0.048 | 3.01 ± 0.08 |
| RNSNPENTVGLISGAGA [RPN10] | 2.93 ± 0.11 | 2.81 ± 0.074 | 2.6 ± 0.067 | 2.06 ± 0.069 |
| LDSNNNNSNSNNNDNNN [SWI1] | 2.65 ± 0.035 | 2.74 ± 0.039 | 2.79 ± 0.028 | 2.71 ± 0.029 |
| LGDKELWPVAIGLIALS [YJR042W/NUP85] | 1.57 ± 0.17 | 1.65 ± 0.15 | 1.64 ± 0.27 | 1.73 ± 0.16 |
| HVKAGKGLIKVNGSPIT [RPS16A] | 2.62 ± 0.065 | 2.78 ± 0.059 | 2.87 ± 0.061 | 3.1 ± 0.051 |
| YWQYKAGIPIGLKRSQL [SWP82] | 1.7 ± 0.13 | 1.57 ± 0.081 | 1.69 ± 0.15 | 1.49 ± 0.049 |
| LYQSKGRYMEALALYVD [SRP68] | 1.86 ± 0.076 | 1.9 ± 0.14 | 1.9 ± 0.15 | 2 ± 0.11 |
| SNSSSSPPIIDLFSNNN [MED1] | 2.77 ± 0.06 | 2.82 ± 0.05 | 2.83 ± 0.042 | 2.9 ± 0.042 |
| RVNLSENTPEPDLPALE [SMC4] | 2.26 ± 0.091 | 2.32 ± 0.074 | 3.1 ± 0.086 | 2.83 ± 0.11 |
| RIHAKNFEAALFAKSSS [GAL11] | 2.67 ± 0.086 | 2.54 ± 0.072 | 2.74 ± 0.099 | 2.56 ± 0.047 |
| RMLSSILDINVSSSKNK [SWP82] | 2.71 ± 0.051 | 2.9 ± 0.051 | 2.49 ± 0.059 | 2.61 ± 0.032 |
| IYDFITLFSSIEPQVIN [ECM29] | 1.61 ± 0.07 | 2 ± 0.061 | 1.72 ± 0.18 | 2.08 ± 0.039 |
| FDYMNRYWVQKERSDGK [CDC53] | 2.26 ± 0.16 | – | 2.39 ± 0.21 | 2.57 ± 0.18 |
| LHPYVPSSKPQEQVYPD [SRB8] | 2.81 ± 0.24 | 2.92 ± 0.12 | 3.08 ± 0.093 | 3.25 ± 0.15 |
